Drawing on PMC11417369, “DNA sequence and chromatin differentiate sequence-specific transcription factor binding in the human malaria parasite Plasmodium falciparum”, this text covers binding signal for 17 molecules.

Sequences and labels used below:
T1: AP2-HC D1 (Plasmodium falciparum, UniProt Q8IKR9 1316-1374)
T1 sequence: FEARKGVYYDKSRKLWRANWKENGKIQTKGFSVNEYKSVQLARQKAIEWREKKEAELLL

B1: CACACA_site9021 (dsDNA)
DNA 1: ATTTCGTAATTTATATCACACACATATATATATAAT
DNA 2: ATTATATATATATGTGTGTGATATAAATTACGAAAT
B2: CACACA_site315 (dsDNA)
DNA 1: ACCAATAATATACATACACACATAAAGGTTTATATA
DNA 2: TATATAAACCTTTATGTGTGTATGTATATTATTGGT
B3: CACACA_site6369 (dsDNA)
DNA 1: ATAAATAAGATATATACACACATATCTATACATATT
DNA 2: AATATGTATAGATATGTGTGTATATATCTTATTTAT
B4: CACACA_site1808 (dsDNA)
DNA 1: ATAAATATTAAAAGTACACACAGATACACTAATTAT
DNA 2: ATAATTAGTGTATCTGTGTGTACTTTTAATATTTAT
B5: CACACA_site3596 (dsDNA)
DNA 1: AAATTCAAACAAATTACACACATTTTTTTTTAATTT
DNA 2: AAATTAAAAAAAAATGTGTGTAATTTGTTTGAATTT
B6: CACACA_site1591 (dsDNA)
DNA 1: TTAGCAACTATTACTACACACATTTGTATATAATTT
DNA 2: AAATTATATACAAATGTGTGTAGTAATAGTTGCTAA
B7: CACACA_site5129 (dsDNA)
DNA 1: TATAAATACATACGTACACACAAATATTAAAATATA
DNA 2: TATATTTTAATATTTGTGTGTACGTATGTATTTATA
B8: CACACA_site8037 (dsDNA)
DNA 1: TAAAAGAAATAAGGTGCACACATATACATATATATA
DNA 2: TATATATATGTATATGTGTGCACCTTATTTCTTTTA
B9: CACACA_site6815 (dsDNA)
DNA 1: TAAGAGTAGTTATATACACACATGTATATTATAGTT
DNA 2: AACTATAATATACATGTGTGTATATAACTACTCTTA
B10: CACACA_site2473 (dsDNA)
DNA 1: GTTATTGTAAAAAGATTACACACGTTCTATATACTT
DNA 2: AAGTATATAGAACGTGTGTAATCTTTTTACAATAAC
B11: CACACA_site884 (dsDNA)
DNA 1: ATGTGGAAATAGAGCACACATATATATAATATATAT
DNA 2: ATATATATTATATATATGTGTGCTCTATTTCCACAT
B12: CACACA_site2016 (dsDNA)
DNA 1: CCAACATATATTATCACACACATATATATATATATA
DNA 2: TATATATATATATATGTGTGTGATAATATATGTTGG
B13: CACACA_site7038 (dsDNA)
DNA 1: ACAACATATGTTATCACACACATATAAATATAAATA
DNA 2: TATTTATATTTATATGTGTGTGATAACATATGTTGT
B14: CACACA_site7206 (dsDNA)
DNA 1: TACCTAATATGTTATACACACATTATAAGTACATAT
DNA 2: ATATGTACTTATAATGTGTGTATAACATATTAGGTA
B15: CACACA_site3027 (dsDNA)
DNA 1: AAGTTTATTTGTTGCACACATATAAGTAGAGAAAAT
DNA 2: ATTTTCTCTACTTATATGTGTGCAACAAATAAACTT
B16: CACACA_site1955 (dsDNA)
DNA 1: AATGAATGTAAGAAAATACACACTAGTATAGTAACA
DNA 2: TGTTACTATACTAGTGTGTATTTTCTTACATTCATT
B17: CACACA_site2516 (dsDNA)
DNA 1: AAAAAAAATGATAATATACACACTTATGGGAGAGCG
DNA 2: CGCTCTCCCATAAGTGTGTATATTATCATTTTTTTT

The data set deals with T1, AP2-HC D1. The data set can be described thus: gcPBM; about 25 ug protein; PBS, 1% milk, 0.2 mg/ml BSA, salmon testes DNA, 0.03% Triton X-100. The conditions noted are these: tags: N-terminal GST (pGEX-4T-1), kept; label: surface-attached array probe.
On to B1, for which the binding signal was 9.99 ln median PBM intensity, better of two orientations. Take B2: the binding signal was 9.89 ln median PBM intensity, better of two orientations. As for B3, the figure is 9.9 ln median PBM intensity, better of two orientations; as for B4, 10 ln median PBM intensity, better of two orientations. The result for B5 reads 9.94 ln median PBM intensity, better of two orientations; that for B6, 9.95 ln median PBM intensity, better of two orientations; that for B7, 9.91 ln median PBM intensity, better of two orientations. The result for B8 reads 9.97 ln median PBM intensity, better of two orientations.

On to B9, for which the binding signal is 9.9 ln median PBM intensity, better of two orientations. The result for B10 reads 9.97 ln median PBM intensity, better of two orientations; that for B11, 9.92 ln median PBM intensity, better of two orientations. As for B12, the figure is 9.91 ln median PBM intensity, better of two orientations. The result for B13 reads 9.96 ln median PBM intensity, better of two orientations; that for B14, 9.98 ln median PBM intensity, better of two orientations; that for B15, 9.88 ln median PBM intensity, better of two orientations. For the molecule B16, the binding signal was 9.93 ln median PBM intensity, better of two orientations. In the case of B17, the binding signal is 9.94 ln median PBM intensity, better of two orientations.
